Source: patent publication US20190134153A1, “IMMUNOMODULATORY EFFECT OF INHALED KINASE INHIBITOR PEPTIDES IN LUNG” (MOERAE MATRIX, INC., priority 2017, published 2019)

Tests used:
Experiment in all cases: Kinase Profiling Assay
Type in all cases: biochemical
Conditions in all cases: 100 μM
[1] = target: T1, TAO1(h) (Homo sapiens, UniProt Q7L7X3)
T1 sequence (Q7L7X3 1-1001): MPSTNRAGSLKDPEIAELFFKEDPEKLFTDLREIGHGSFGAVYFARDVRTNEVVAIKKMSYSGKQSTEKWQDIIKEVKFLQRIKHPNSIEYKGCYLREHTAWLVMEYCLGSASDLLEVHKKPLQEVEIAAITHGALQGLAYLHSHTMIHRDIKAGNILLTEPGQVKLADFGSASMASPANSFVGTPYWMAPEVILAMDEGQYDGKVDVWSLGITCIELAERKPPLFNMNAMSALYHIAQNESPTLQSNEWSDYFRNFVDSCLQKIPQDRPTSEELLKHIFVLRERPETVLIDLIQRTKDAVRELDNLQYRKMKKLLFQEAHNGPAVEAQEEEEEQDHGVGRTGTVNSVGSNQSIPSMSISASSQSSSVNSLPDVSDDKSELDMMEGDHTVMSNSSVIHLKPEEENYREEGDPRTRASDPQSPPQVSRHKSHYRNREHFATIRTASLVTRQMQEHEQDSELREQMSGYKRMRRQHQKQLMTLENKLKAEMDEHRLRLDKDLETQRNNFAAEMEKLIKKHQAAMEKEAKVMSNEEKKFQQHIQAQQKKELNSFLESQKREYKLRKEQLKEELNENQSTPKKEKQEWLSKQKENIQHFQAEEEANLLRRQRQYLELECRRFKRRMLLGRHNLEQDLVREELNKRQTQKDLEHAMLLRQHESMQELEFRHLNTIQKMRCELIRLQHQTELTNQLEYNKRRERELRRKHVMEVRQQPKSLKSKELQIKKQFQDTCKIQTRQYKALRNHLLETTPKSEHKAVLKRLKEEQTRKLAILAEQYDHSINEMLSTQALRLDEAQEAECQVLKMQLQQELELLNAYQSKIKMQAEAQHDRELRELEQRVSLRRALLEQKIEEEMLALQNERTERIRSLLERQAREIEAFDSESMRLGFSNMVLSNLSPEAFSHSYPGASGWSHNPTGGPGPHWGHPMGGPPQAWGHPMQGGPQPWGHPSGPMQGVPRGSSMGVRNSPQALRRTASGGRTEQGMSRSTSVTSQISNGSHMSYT

[2] = target: T2, MKK6(h) (Homo sapiens, UniProt P52564)
T2 sequence (P52564 1-334): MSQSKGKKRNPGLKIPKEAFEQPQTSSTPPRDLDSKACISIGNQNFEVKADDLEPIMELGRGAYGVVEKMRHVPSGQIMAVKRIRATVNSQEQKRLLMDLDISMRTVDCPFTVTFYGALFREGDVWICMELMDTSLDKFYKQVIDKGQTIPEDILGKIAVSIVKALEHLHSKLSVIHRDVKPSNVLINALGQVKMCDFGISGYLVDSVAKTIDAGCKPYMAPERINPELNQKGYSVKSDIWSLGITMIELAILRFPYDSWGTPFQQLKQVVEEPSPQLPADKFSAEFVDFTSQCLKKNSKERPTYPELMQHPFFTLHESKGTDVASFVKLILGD

[3] = target: CK1δ(h) (Homo sapiens, UniProt P48730)
[4] = target: T3, ULK2(h) (Homo sapiens, UniProt Q8IYT8)
T3 sequence (Q8IYT8 1-1036): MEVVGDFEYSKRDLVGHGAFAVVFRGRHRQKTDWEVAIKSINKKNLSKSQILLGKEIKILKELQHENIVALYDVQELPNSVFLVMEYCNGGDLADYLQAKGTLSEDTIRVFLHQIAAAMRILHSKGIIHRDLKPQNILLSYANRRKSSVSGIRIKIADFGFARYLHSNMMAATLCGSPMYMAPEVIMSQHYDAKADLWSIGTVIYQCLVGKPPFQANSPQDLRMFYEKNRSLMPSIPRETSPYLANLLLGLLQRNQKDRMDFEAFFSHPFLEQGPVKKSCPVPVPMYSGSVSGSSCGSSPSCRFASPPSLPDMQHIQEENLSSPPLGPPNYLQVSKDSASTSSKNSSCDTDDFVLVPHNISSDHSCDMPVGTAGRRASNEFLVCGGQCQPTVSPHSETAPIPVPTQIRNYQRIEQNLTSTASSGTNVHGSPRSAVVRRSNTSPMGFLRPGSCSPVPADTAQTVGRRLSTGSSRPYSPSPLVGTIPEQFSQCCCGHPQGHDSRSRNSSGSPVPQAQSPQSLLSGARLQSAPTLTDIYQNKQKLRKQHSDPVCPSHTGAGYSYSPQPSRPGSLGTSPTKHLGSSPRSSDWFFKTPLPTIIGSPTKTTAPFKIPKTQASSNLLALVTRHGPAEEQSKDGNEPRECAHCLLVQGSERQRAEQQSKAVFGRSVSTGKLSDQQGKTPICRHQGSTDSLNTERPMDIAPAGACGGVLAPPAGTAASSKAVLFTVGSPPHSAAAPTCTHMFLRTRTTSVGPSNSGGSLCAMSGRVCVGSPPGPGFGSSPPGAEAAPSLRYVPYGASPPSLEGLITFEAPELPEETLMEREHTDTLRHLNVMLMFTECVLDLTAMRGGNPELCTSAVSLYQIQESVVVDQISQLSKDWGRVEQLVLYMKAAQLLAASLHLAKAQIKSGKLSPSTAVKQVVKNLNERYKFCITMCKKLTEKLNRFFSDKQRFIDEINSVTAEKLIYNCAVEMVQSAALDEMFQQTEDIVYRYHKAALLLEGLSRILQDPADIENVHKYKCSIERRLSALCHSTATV

Sequence of CK1δ(h) (P48730 whole entry): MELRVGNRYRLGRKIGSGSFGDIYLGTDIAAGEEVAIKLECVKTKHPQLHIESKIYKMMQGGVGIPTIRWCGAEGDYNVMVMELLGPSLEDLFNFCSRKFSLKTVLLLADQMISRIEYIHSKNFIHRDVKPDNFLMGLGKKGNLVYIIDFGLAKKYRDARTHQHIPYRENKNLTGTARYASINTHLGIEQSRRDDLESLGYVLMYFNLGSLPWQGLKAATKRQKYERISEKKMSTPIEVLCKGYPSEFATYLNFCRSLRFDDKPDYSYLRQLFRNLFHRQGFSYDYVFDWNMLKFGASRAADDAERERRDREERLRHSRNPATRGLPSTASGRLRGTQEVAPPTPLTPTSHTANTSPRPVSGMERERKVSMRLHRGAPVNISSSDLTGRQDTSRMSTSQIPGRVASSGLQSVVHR

| Sequence | % activity [1] | % activity [2] | % activity [3] | % activity [4] |
| --- | --- | --- | --- | --- |
| FAKLAARLYRKALARQLGVAA [MMI-0300] | 82% | 48% | 92% | 122% |
| KAFAKLAARLYRKALARQLGVAA [MMI-0400] | 73% | 44% | 93% | 131% |
| HRRIKAWLKKIKALARQLGVAA [MMI-0500] | 24% | 18% | 78% | 124% |
| YARAAARQARAKALNRQLGVA [MMI-0200] | – | 98% | 92% | 132% |
